From US20090324601A1 (published 2009)

How the values were obtained:
[1] = biological target: PDGFR-alpha on human osteosarcoma MG-63 cells (human, UniProt P16234 24-1089); test: cell-based or functional assay
[2] = biological target: PDGFR-alpha on MG-63 cells (human, UniProt P16234 24-1089); test: cell-based or functional assay
Sequence of PDGFR-alpha on MG-63 cells (P16234 24-1089): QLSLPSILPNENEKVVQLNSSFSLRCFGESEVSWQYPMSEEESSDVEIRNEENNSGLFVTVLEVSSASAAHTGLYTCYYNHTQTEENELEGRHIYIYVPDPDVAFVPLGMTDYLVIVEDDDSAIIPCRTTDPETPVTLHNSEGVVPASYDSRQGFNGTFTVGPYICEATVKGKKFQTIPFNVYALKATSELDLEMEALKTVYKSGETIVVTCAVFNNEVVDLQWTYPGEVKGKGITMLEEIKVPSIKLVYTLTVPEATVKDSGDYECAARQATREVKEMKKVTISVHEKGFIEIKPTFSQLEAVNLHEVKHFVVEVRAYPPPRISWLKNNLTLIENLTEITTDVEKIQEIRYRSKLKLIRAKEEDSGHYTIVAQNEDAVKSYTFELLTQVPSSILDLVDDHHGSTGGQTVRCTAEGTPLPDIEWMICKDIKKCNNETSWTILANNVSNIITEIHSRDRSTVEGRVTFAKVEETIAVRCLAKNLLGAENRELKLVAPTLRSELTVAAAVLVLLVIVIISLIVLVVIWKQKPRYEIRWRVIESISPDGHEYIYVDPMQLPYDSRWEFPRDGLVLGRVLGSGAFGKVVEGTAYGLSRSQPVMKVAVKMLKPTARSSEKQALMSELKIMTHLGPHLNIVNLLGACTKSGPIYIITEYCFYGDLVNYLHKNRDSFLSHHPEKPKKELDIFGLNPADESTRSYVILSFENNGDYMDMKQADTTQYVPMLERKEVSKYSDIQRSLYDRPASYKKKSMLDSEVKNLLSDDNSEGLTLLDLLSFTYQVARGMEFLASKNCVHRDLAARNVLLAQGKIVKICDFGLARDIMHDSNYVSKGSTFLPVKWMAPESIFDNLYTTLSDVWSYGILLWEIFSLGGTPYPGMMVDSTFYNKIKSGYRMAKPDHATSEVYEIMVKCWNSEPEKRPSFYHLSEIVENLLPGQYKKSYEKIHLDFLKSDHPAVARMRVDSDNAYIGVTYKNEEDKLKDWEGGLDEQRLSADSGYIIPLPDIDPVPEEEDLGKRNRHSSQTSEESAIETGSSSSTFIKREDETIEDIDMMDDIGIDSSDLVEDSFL

Sequence of PDGFR-alpha on human osteosarcoma MG-63 cells (P16234 24-1089): as above

pTyr Assay: % Inhibition @ 2 µg/ml [1] [%] | Proliferation Assay: IC50 ng/ml (1-6-06) [1] [ng/mL] | Average pTyr Inhibition [2] [%] | Binder
85 |  |  | 3.457.3.1 (antibody, V domains shown) VH: QVQLVESGGGVVQPGRSLRLSCAASGFTFSSYGMHWVRQAPGKGLEWVAVIWYDRSNKYYADSVKGRFTISRDNSKNTLYLQMNSLRAEDTAVYYCAGGRSRGAFDFWGQGTLVTVSS VL: DIQMTQSPSSVSASVGDRVTITCRASQGISSWLAWYQQKAGKAPKLLIYSASSLQSGVPSRFSGSGSGTDFTLTISSLQPEDFATYYCQRTNSFPRTFGQGTKVEIK [3.457.3.1, listing 1 of 2 here]
56 | 168 |  | 3.772.2 (antibody, V domains shown) VH: QVQLVESGGGVVQPGRSLRLSCAASGFTFSSYGMHWVRQAPGKGLEWVAVIWYDRSNKYYADSVKGRFTISRDNSKNTLYLQMNSLRAEDTAVYYCAGGRSRGAFDFWGQGTLVTVSS VL: DIQMTQSPSSVSASVGDRVTITCRASQDISSWLAWYQQKAGKAPKLLIYAASSLQSGVPSRFSGSGSGTDFTLTISSLQPEDFATYYCQRTNSFPRTFGQGTKVEIK
 |  | 95 | 3.472.1.1 (antibody, V domains shown) VH: QVQLVESGGGVVQPGRSLRLSCAASGFTFSSYGMHWVRQAPGKGLEWVAVIWYDRSNKYYVDSVKGRFTISRDNSKNTLYLQMNSLRAEDTAVYYCAGGRSRGAFDYWGQGTLVTVSS VL: DIQMTQSPSSVSASVGDRVTITCRASQDISSWLAWYQQKPGKAPKLLIFAASSLQSGVPSRFSGSGSGTDFTLTISSLQPEDFATYYCQRTSSFPRTFGQGTKVEIK [3.472.1.1, listing 1 of 2 here]
61 |  |  | 3.472.1.1 (antibody, V domains shown) VH: QVQLVESGGGVVQPGRSLRLSCAASGFTFSSYGMHWVRQAPGKGLEWVAVIWYDRSNKYYVDSVKGRFTISRDNSKNTLYLQMNSLRAEDTAVYYCAGGRSRGAFDYWGQGTLVTVSS VL: DIQMTQSPSSVSASVGDRVTITCRASQDISSWLAWYQQKPGKAPKLLIFAASSLQSGVPSRFSGSGSGTDFTLTISSLQPEDFATYYCQRTSSFPRTFGQGTKVEIK [3.472.1.1, listing 2 of 2 here]
 |  | > 100 | 3.457.3.1 (antibody, V domains shown) VH: QVQLVESGGGVVQPGRSLRLSCAASGFTFSSYGMHWVRQAPGKGLEWVAVIWYDRSNKYYADSVKGRFTISRDNSKNTLYLQMNSLRAEDTAVYYCAGGRSRGAFDFWGQGTLVTVSS VL: DIQMTQSPSSVSASVGDRVTITCRASQGISSWLAWYQQKAGKAPKLLIYSASSLQSGVPSRFSGSGSGTDFTLTISSLQPEDFATYYCQRTNSFPRTFGQGTKVEIK [3.457.3.1, listing 2 of 2 here]
 |  | 92 | 3.805.1.3 (antibody, V domains shown) VH: QVQLVESGGGVVQPGRSLRLSCAASGFTFSSYGMHWVRQAPGKGLEWVAVIWYDRSNKYYADSVKGRFTISRDNSKNTLYLQMNSLRAEDTAVYYCAGGRSRGAFDYWGQGTLVTVSS VL: DIQMTQSPSSVSASVGDRVTITCRASQGISSWLAWYQQKPGKAPNLLIYAASSLQSGVPSRFSGSGSGTDFTLTISSLQPEDFATYYCQRTNNFPRTFGQGTKVEIK [3.805.1.3, listing 1 of 2 here]
58 | 1020 |  | 3.805.1.3 (antibody, V domains shown) VH: QVQLVESGGGVVQPGRSLRLSCAASGFTFSSYGMHWVRQAPGKGLEWVAVIWYDRSNKYYADSVKGRFTISRDNSKNTLYLQMNSLRAEDTAVYYCAGGRSRGAFDYWGQGTLVTVSS VL: DIQMTQSPSSVSASVGDRVTITCRASQGISSWLAWYQQKPGKAPNLLIYAASSLQSGVPSRFSGSGSGTDFTLTISSLQPEDFATYYCQRTNNFPRTFGQGTKVEIK [3.805.1.3, listing 2 of 2 here]
84 | 61.9 |  | 3.23.3 (antibody, V domains shown) VH: QVQLVESGGGVVQPGRSLRLSCAASGFTFSRYGMHWVRQAPGKGLEWVAVIWYDGRNKYYVDSVKGRFTISRDNSKNTLYLQMNSLRAEDTAVYYCVGVGITVTGAFDYWGQGTLVTVSS VL: EIVMTQSPATLSVSPGERATLSCRASQSVRSNLAWYQQKPGQAPRLLIYGASTRVTDIPTRFSGSGSGTEFTLSISSLQSEDFAVYYCQQYNNWPRTFGQGTKVEIK
92 | 4600 |  | 3.818.4 (antibody, V domains shown) VH: EVQLVESGGGLVQPGGSLRLSCAASGFTFSSYSMNWVRQAPGKGLEWVSYISGSSTTMYYADSVKGRFTISRDNAKNSLYLQMNSLRDEDTAVYYCARLRHFDWSYAFDIWGQGTMVTVSS VL: DIQMTQSPSSVSTSVGDRVTITCRASQGISSWLAWYQQRPGKAPKLLIYAASSLQSGVPSRFSGSGSGTDFTLTISSLQPEDFATYFCQQATSFPFTFGPGTKVGIK [3.818.4, listing 1 of 2 here]
 |  | > 100 | 3.87.1.1 (antibody, V domains shown) VH: QVQLVESGGGVVQPGRSLRLSCAASGFTFSSYGMHWVRQAPGKGLEWVAVIWYDRSNKYYADSVKGRFTISRDNSKNTLYLQMNSLRAEDTAVYYCAGGRSRGAFDYWGQGTLVTVSS VL: DIQMTQSPSSVSASVGDRVTITCRASQGISSWLAWYQQKPGKAPKLLIFAASSLQSGVPSRFSGSGSGTDFTLTISSLQPEDFATYYCQRTNSFPRTFGQGTKVEIK [3.87.1.1, listing 1 of 2 here]
 |  | > 100 | 3.818.4 (antibody, V domains shown) VH: EVQLVESGGGLVQPGGSLRLSCAASGFTFSSYSMNWVRQAPGKGLEWVSYISGSSTTMYYADSVKGRFTISRDNAKNSLYLQMNSLRDEDTAVYYCARLRHFDWSYAFDIWGQGTMVTVSS VL: DIQMTQSPSSVSTSVGDRVTITCRASQGISSWLAWYQQRPGKAPKLLIYAASSLQSGVPSRFSGSGSGTDFTLTISSLQPEDFATYFCQQATSFPFTFGPGTKVGIK [3.818.4, listing 2 of 2 here]
69 | 6240 |  | 3.87.1.1 (antibody, V domains shown) VH: QVQLVESGGGVVQPGRSLRLSCAASGFTFSSYGMHWVRQAPGKGLEWVAVIWYDRSNKYYADSVKGRFTISRDNSKNTLYLQMNSLRAEDTAVYYCAGGRSRGAFDYWGQGTLVTVSS VL: DIQMTQSPSSVSASVGDRVTITCRASQGISSWLAWYQQKPGKAPKLLIFAASSLQSGVPSRFSGSGSGTDFTLTISSLQPEDFATYYCQRTNSFPRTFGQGTKVEIK [3.87.1.1, listing 2 of 2 here]
-3 | 3820 |  | 3.625.1.7 (antibody, V domains shown) VH: QVQLVESGGGVVQPGRSLRLSCAASGFTFSSYGMHWVRQAPGKGLEWVAVIWYDRSNKYYADSVKGRFTISRDNSKNTLYLQMDSLRAEDTAVYYCAGGRSRGAFDYWGQGTLVTVSS VL: DIQMTQSPSSVSASVGDRVTITCRASQGISSWLAWYQQKPGKAPKLLIYAASSLQSGVPSRFSGSGSGTDFTLTISSLQPEDFATYYCQRTNSFPRTFGQGTKVEIK
-3 |  |  | 2.1954.2 (antibody, V domains shown) VH: QVQLVESGGGVVQPGRSLRLSCAASGFSFSIYGMHWVRQAPGKGLEWVAVIWFDGSNKYYADSVKGRFTISRDNSKNTLYLQMNSLRAEDTALYYCARDKASYYGSGMDYWGQGTLVTVSS VL: EIVLTQSPGTLSLSPGERATLSCRASQSVSSTYLAWYQHRPGQAPRLLISGASRRATGIPDRFSGSGSGTDFTLTISRLEPEDFAVYYCQHYGSSFTWTFGQGTKVEIK [2.1954.2, listing 1 of 2 here]
 |  | > 100 | 2.1954.2 (antibody, V domains shown) VH: QVQLVESGGGVVQPGRSLRLSCAASGFSFSIYGMHWVRQAPGKGLEWVAVIWFDGSNKYYADSVKGRFTISRDNSKNTLYLQMNSLRAEDTALYYCARDKASYYGSGMDYWGQGTLVTVSS VL: EIVLTQSPGTLSLSPGERATLSCRASQSVSSTYLAWYQHRPGQAPRLLISGASRRATGIPDRFSGSGSGTDFTLTISRLEPEDFAVYYCQHYGSSFTWTFGQGTKVEIK [2.1954.2, listing 2 of 2 here]
74 | > 10000 |  | 4.16.2 (antibody, V domains shown) VH: not shown VL: DIQMTQSPSSLSASVGDRVTITCRASQVIANYLAWYQQKPGKVPKLLIYAASTLQSGVPSRFSGSGSGTDFTLTISSLQPEDVATYYCHTYKSAPWTFGQGTKVEIK
77 | > 10000 |  | 5.1.1.1 (antibody, V domains shown) VH: QVQLVQSGAEVKKPGASVKVSCKASGYTFTSYDINWVRQATGQGLEWMGWMNPNSGNTGYAQQFQGRVTMTRNTSITTAYMELSSLRSEDTAVYYCAREEYSSSLFDSWGQGTLVTVSS VL: DIQMTQSPSSLSASVGDRVTITCRASQGIRNNLGWFQQKPGKAPKRLIYAASSLQSGVPSRFSGSGSGTKFTLTISSLQPEDFATYFCLQHNRYPLTFGGGTKVEIK
65 | > 10000 |  | 2.1576.1.2 (antibody, V domains shown) VH: EVQLVESGGGLVQPGGSLRLSCAASGFTFSSYWMSWVRQAPGKGLEWVANIKQDGSEKYYVDSVKGRFTISRDNAKNSLYLQMNSLRAEDTAVYYCARWGVFGSGSYYIPFDYWGQGTLVTVSS VL: DIQMTQSPSSLSASVGDRVTITCRASQGIRNYLAWFQQKPGKAPKSLIYAASSLQSGVPSTFSGSGSGTHFTLTISSLQPEDFASYFCQQYEIYPLTFGGGTKVEIK
31 | 2.2 |  | 5.9.3 (antibody, V domains shown) VH: not shown VL: DIQMTQSPSSLSASVGDRVSITCRASQGIRNDLGWYQQKPGKAPTRLIYAASSLQSGVPSRFSGSGSGTEFTLTISSLQPEDFASYYCLQHNSFPWTFGQGTKVEIK
26 | 150 |  | 3.23.2 (antibody, V domains shown) VH: EVQLVESGGGLVQPGGSLRLSCAASGFTFSNFWMSWVRQAPGKGLEWVANIKHGGSEKYYVDSVKGRFTISRDNAKNSLYLQMNRLRAEDTAVYYCARDPMYYFDYWGQGTLVTVSS VL: DIQMTQSPSSLSASVGDRVTITCRASQDIRNDLDWYQQKPGKAPKRLIYAASSLQSGVPSRFSGSGSGTEFTLTISSLQPEDFATYYCLQHNGYPRSFGQGTKLEIK
-9 |  |  | 2.2002.3 (antibody, V domains shown) VH: QVQLVESGGGVVQPGRSLRVSCAASGFMFRSYGMHWVRQAPGKGLEWVAVIWHDGSNKNHGDSVKGRFTISRDNSKNTLYLQMNSLRAEDTAVYYCARGRLAGGGPYYYYYYGMDVWGQGTTVTVSS VL: not shown [2.2002.3, listing 1 of 2 here]
 |  | > 100 | 2.2002.3 (antibody, V domains shown) VH: QVQLVESGGGVVQPGRSLRVSCAASGFMFRSYGMHWVRQAPGKGLEWVAVIWHDGSNKNHGDSVKGRFTISRDNSKNTLYLQMNSLRAEDTAVYYCARGRLAGGGPYYYYYYGMDVWGQGTTVTVSS VL: not shown [2.2002.3, listing 2 of 2 here]
